Source: patent publication US9573987B2 (priority 2011, dated 2017)
Several values for one entry are separate records, joined by “and”; a condition that tells them apart may be missing. Identical values can stand only once. Like-named read-outs stand apart in the source and are kept apart here. Bridges are numbered along the chain shown (N, C = ends). Where no end group is shown, it is not given here.

Experiments:
insulin receptor [1] = molecular target: T1, insulin receptor (Homo sapiens, UniProt P06213); assay: Insulin receptor phosphorylation assay, receptor transfected HEK293 cells; assay type: cell-based; design: expressed in transfected cells; host or cells: HEK293; details: Table 10
Description: (§1) Color development was stopped 5 min later by adding 0.05 ml 1 N HCl. Absorbance at 450 nm was measured on Titertek Multiscan MCC340 (ThermoFisher, Pittsburgh, Pa.).

IGF-1 receptor [2] = molecular target: T2, IGF-1 receptor (Homo sapiens, UniProt P08069); assay: IGF-1 receptor phosphorylation assay, receptor transfected HEK293 cells; assay type: cell-based; design: expressed in transfected cells; host or cells: HEK293
Description: as §1

IGF-1 receptor [3] = molecular target: T2, IGF-1 receptor; assay: IGF-1 receptor binding assay (competition, scintillation proximity); design: expressed in transfected cells; plasma membrane fragments; details: for IGF-1 Receptor % IGF-1 (in test): Table 9; for EC50: Table 15, read-out: Receptor Binding IGR-1R EC50
insulin receptor [4] = molecular target: T1, insulin receptor; assay: Insulin receptor binding assay (competition, scintillation proximity); design: expressed in transfected cells; plasma membrane fragments; details: for Ratio: IGF-1 receptor IC50 over insulin receptor IC50
IR-B = IR-B (Homo sapiens, UniProt P06213); assay: In vitro activity of pegylated analogs relative to native insulin at IR-B
IR-A = IR-A (Homo sapiens, UniProt P06213); assay: In vitro activity of pegylated analogs relative to native insulin at IR-A
[5] = test system: human mammary epithelial cells (HMEC); assay: Human mammary epithelial cells proliferation ([14C]-thymidine); assay type: cell-based
Description: The plate was incubated 4 h at 37° C., 5% CO2 and 90% humidity.

blood glucose = assay: Comparative insulin tolerance test / insulin dose titration in mice
[6] = molecular target: insulin subtype B receptor (IR-B) (Homo sapiens, UniProt P06213); assay: Insulin subtype B receptor phosphorylation, receptor transfected HEK293 cells; assay type: cell-based; design: expressed in transfected cells; host or cells: HEK293
Description: (§2) Color development was stopped 5 min later by adding 0.05 ml 1 N HCl. Absorbance at 450 nm was measured on Titertek Multiscan MCC340 (ThermoFisher, Pittsburgh, Pa.). […]

[7] = molecular target: T3, insulin subtype A receptor (IR-A) (Homo sapiens, UniProt P06213); assay: Insulin subtype A receptor phosphorylation, receptor transfected HEK293 cells; assay type: cell-based
T3 construct: expressed in transfected cells; host or cells: HEK293
Description: as §2

[8] = total phosphorylation, Table 10
[9] = Table 15, read-out: Proliferation HMEC EC50
[10] = Table 15, read-out: Receptor Phosphorylation IGF-IR EC50
[11] = Table 15, read-out: Receptor Phosphorylation IR-B EC50

`CC[C@H](C)[C@H](NC(=O)CN)C(=O)N[C@H](C(=O)N[C@@H](CC(=O)O)C(=O)N[C@@H](CCC(=O)O)C(=O)N[C@H]1CSSC[C@@H]2NC(=O)[C@H](CO)NC(=O)[C@H](C)NC(=O)[C@H](Cc3c[nH]cn3)NC(=O)[C@H](CSSC[C@H](NC(=O)[C@H](CC(C)C)NC(=O)[C@H](Cc3c[nH]cn3)NC(=O)[C@H](CCC(=O)O)NC(=O)[C@@H]3CCCN3C(=O)CN)C(=O)NCC(=O)N[C@@H](C)C(=O)N[C@@H](CC(=O)O)C(=O)N[C@@H](CC(C)C)C(=O)N[C@@H](C(C)C)C(=O)N[C@@H](CC(=O)O)C(=O)N[C@@H](C)C(=O)N[C@@H](CC(C)C)C(=O)N[C@@H](Cc3ccc(O)cc3)C(=O)N[C@@H](CC(C)C)C(=O)N[C@@H](C(C)C)C(=O)N[C@H](C(=O)NCC(=O)N[C@@H](CC(=O)O)C(=O)N[C@@H](CCCNC(=N)N)C(=O)NCC(=O)N[C@@H](Cc3ccccc3)C(=O)N[C@@H](Cc3ccc(O)cc3)C(N)=O)CSSC[C@@H](C(=O)N[C@@H](CC(N)=O)C(=O)O)NC(=O)[C@H](Cc3ccc(O)cc3)NC(=O)[C@H](CCSC)NC(=O)[C@H](CCC(=O)O)NC(=O)[C@H](CC(C)C)NC(=O)[C@H](CCCNC(=N)N)NC(=O)[C@H](CCCNC(=N)N)NC(=O)[C@H](CC(C)C)NC(=O)[C@H](CC(=O)O)NC2=O)NC1=O)C(C)C` was tested, and the EC50 (insulin receptor [1]; Insulin Receptor EC50:, total phosphorylation) was 0.15 nM and 0.25 nM, the “Insulin Receptor % Insulin” value (insulin receptor [1]; listed as IGF-1 A (H8 A9 N21) B(H5D10Y16L17) DPI A-COOH) was 840% and 1080% and the “IGF-1 Receptor % IGF” value (IGF-1 receptor [2]; Table 10) was 181.395%. For the same molecule, the EC50 (IGF-1 receptor [2]; [8]) was 0.43 nM, the “IGF-1 Receptor % IGF-1 (in test)” value (IGF-1 receptor [3]) was 12.9% and the Ratio (insulin receptor [4]) was 80.6. For the same molecule, the “Insulin Receptor % insulin (in test)” value (insulin receptor [4]; Table 9) was 1576.7% and 1667.0%.

In the case of `CC[C@H](C)[C@H](NC(=O)CN)C(=O)N[C@H](C(=O)N[C@@H](CC(=O)O)C(=O)N[C@@H](CCC(=O)O)C(=O)N[C@H]1CSSC[C@@H]2NC(=O)[C@H](CO)NC(=O)[C@H](CCCNC(=N)N)NC(=O)[C@H](Cc3ccccc3)NC(=O)[C@H](CSSC[C@H](NC(=O)[C@H](CC(C)C)NC(=O)[C@@H](NC(=O)[C@H](CCC(=O)O)NC(=O)[C@@H]3CCCN3C(=O)CN)[C@@H](C)O)C(=O)NCC(=O)N[C@@H](C)C(=O)N[C@@H](CC(=O)O)C(=O)N[C@@H](CC(C)C)C(=O)N[C@@H](C(C)C)C(=O)N[C@@H](CC(=O)O)C(=O)N[C@@H](C)C(=O)N[C@@H](CC(C)C)C(=O)N[C@@H](Cc3ccc(O)cc3)C(=O)N[C@@H](CC(C)C)C(=O)N[C@@H](C(C)C)C(=O)N[C@H](C(=O)NCC(=O)N[C@@H](CC(=O)O)C(=O)N[C@@H](CCCNC(=N)N)C(=O)NCC(=O)N[C@@H](Cc3ccccc3)C(=O)N[C@@H](Cc3ccc(O)cc3)C(N)=O)CSSC[C@@H](C(=O)N[C@@H](C)C(=O)O)NC(=O)[C@H](Cc3ccc(O)cc3)NC(=O)[C@H](CCSC)NC(=O)[C@H](CCC(=O)O)NC(=O)[C@H](CC(C)C)NC(=O)[C@H](CCCNC(=N)N)NC(=O)[C@H](CCCNC(=N)N)NC(=O)[C@H](CC(C)C)NC(=O)[C@H](CC(=O)O)NC2=O)NC1=O)C(C)C` [IGF-1 A:B(D10Y16L17) DPI A-COOH], the “Insulin Receptor % Insulin” value (insulin receptor [1]) is reported as 1575%, the “IGF-1 Receptor % IGF” value (IGF-1 receptor [2]; Table 10) is reported as 111.538% and the EC50 (IGF-1 receptor [2]; [8]) is reported as 0.78 nM. The “IGF-1 Receptor % IGF-1 (in test)” value (IGF-1 receptor [3]) was 7.7%.

In the case of `CC[C@H](C)[C@H](NC(=O)CN)C(=O)N[C@H](C(=O)N[C@@H](CC(=O)O)C(=O)N[C@@H](CCC(=O)O)C(=O)N[C@H]1CSSC[C@@H]2NC(=O)[C@H](CO)NC(=O)[C@H](CCCNC(=N)N)NC(=O)[C@H](Cc3ccccc3)NC(=O)[C@H](CSSC[C@H](NC(=O)[C@H](CC(C)C)NC(=O)[C@@H](NC(=O)[C@H](CCC(=O)O)NC(=O)[C@@H]3CCCN3C(=O)CN)[C@@H](C)O)C(=O)NCC(=O)N[C@@H](C)C(=O)N[C@@H](CCC(=O)O)C(=O)N[C@@H](CC(C)C)C(=O)N[C@@H](C(C)C)C(=O)N[C@@H](CC(=O)O)C(=O)N[C@@H](C)C(=O)N[C@@H](CC(C)C)C(=O)N[C@@H](Cc3ccc(O)cc3)C(=O)N[C@@H](CC(C)C)C(=O)N[C@@H](C(C)C)C(=O)N[C@H](C(=O)NCC(=O)N[C@@H](CC(=O)O)C(=O)N[C@@H](CCCNC(=N)N)C(=O)NCC(=O)N[C@@H](Cc3ccccc3)C(=O)N[C@@H](Cc3ccc(O)cc3)C(=O)N[C@@H](Cc3ccccc3)C(=O)N[C@@H](CC(N)=O)C(=O)N[C@@H](CCCCN)C(=O)N3CCC[C@H]3C(=O)N[C@H](C(N)=O)[C@@H](C)O)CSSC[C@@H](C(=O)N[C@@H](C)C(N)=O)NC(=O)[C@H](Cc3ccc(O)cc3)NC(=O)[C@H](CCSC)NC(=O)[C@H](CCC(=O)O)NC(=O)[C@H](CC(C)C)NC(=O)[C@H](CCCNC(=N)N)NC(=O)[C@H](CCCNC(=N)N)NC(=O)[C@H](CC(C)C)NC(=O)[C@H](CC(=O)O)NC2=O)NC1=O)C(C)C` [IGF-1 A:B(E10Y16L17)], the “Insulin Receptor % Insulin” value (insulin receptor [1]) is reported as 49.2%, the “IGF-1 Receptor % IGF” value (IGF-1 receptor [2]; Table 10) is reported as 13% and the “IGF-1 Receptor % IGF-1 (in test)” value (IGF-1 receptor [3]) is reported as 6.8% and 5.0%. The Ratio (insulin receptor [4]) was 11.9, the “Insulin Receptor % insulin (in test)” value (insulin receptor [4]; Table 9) was 58.7% and 98.8% and the “Insulin Receptor % native insulin activity (0.6 nM)” value (insulin receptor [4]; Table 9) was 90.9% and 117.6%.

“B^1(H5, H10, Y16, L17)25-C^1-A^1 (H8, N18, N21) (GPEHLCGAHLVDALYLVCGDRGFYGYGSSSRRAPQTGIVDECCHRSCDLRRLENYCN) [MIU-35]” was tested, and the “% Insulin Activity IR-B” value (IR-B) was 17.4% and the “% Insulin Activity IR-A” value (IR-A) was 61.4%.

With “B^1(H5,Y16,L17)25-C^1(K8)-A^1(K14, N18,21) (GPEHLCGAELVDALYLVCGDRGFYGYGSSSRKAPQTGIVDECCFRSCDLKRLENYCN) [MIU-69, two 10K PEG chains, at the N-terminus and at amino acid A14]” the “% Insulin Activity IR-B” value (IR-B) was 0.5% and the “% Insulin Activity IR-A” value (IR-A) was 1.0%.

In the case of “B^1(H5,Y16,L17)25-C^1(K8)-A^1(N18,21) (GPEHLCGAELVDALYLVCGDRGFYGYGSSSRKAPQTGIVDECCFRSCDLRRLENYCN) [MIU-67, two 10K PEG chains, at the N-terminus and at position C8 of the linking moiety]”, the “% Insulin Activity IR-A” value (IR-A) is reported as 0.2%.

For “B^1(H5,Y16,L17)25-C^1-A^1(N18,21) (GPEHLCGAELVDALYLVCGDRGFYGYGSSSRRAPQTGIVDECCFRSCDLRRLENYCN) [MIU-57, single chain analog with 20 kDa PEG linked to the N-terminus of the B chain]”, the “% Insulin Activity IR-B” value (IR-B) was 1.1% and the “% Insulin Activity IR-A” value (IR-A) was 3.1%.

With “B^1(H5,Y16,L17, K22)25-C^1(K8)-A^1(N18,21) (GPEHLCGAELVDALYLVCGDKGFYGYGSSSRKAPQTGIVDECCFRSCDLRRLENYCN) [MIU-68, two 10K PEG chains, at the N-terminus and at amino acid B22]” the “% Insulin Activity IR-A” value (IR-A) was 0.4%.

Molecule “Insulin: native human insulin, 51 amino acid heteroduplex of A chain SEQ ID NO: 1 and B chain SEQ ID NO: 2 [reference compound]” has an EC50 [5, 9] of 23.4 nM and an EC50 ([5]; average measured potency at 24, 48, 72 and 96 hours, read-out: EC50) of 6.16 nM.

“MIU-58: dimer of two single chain analogs B1(H5,Y16,L17)25-C1-A1(N18,21) linked head to head via 20 kDa PEG (GPEHLCGAELVDALYLVCGDRGFYGYGSSSRRAPQTGIVDECCFRSCDLRRLENYCN; disulfide 18-56, 42-47, 6-43; also: dimer of two chains joined head to head (B1 N-termini) via 20 kDa PEG)” was tested, and the “blood glucose lowering in insulin tolerance test (result in words)” value (blood glucose) was “less potent than the parent compound, but is still active”, the “% Insulin Activity IR-B” value (IR-B) was 5.8% and the “% Insulin Activity IR-A” value (IR-A) was 19.7%.

B1: … AHLVDALYLVCGDRGFYGYGSSSRRAPQTGIVDECCHRSCDLRRLENYCN (protein, listed as Homo sapiens)
chain: MGSSSSKAPPPSLPSPSRLPGPSDTPILPQEEEEEKGPEHLCGAHLVDALYLVCGDRGFYGYGSSSRRAPQTGIVDECCHRSCDLRRLENYCN
B1 was tested, and the “blood glucose lowering in insulin tolerance test (result in words)” value (blood glucose) was “potent insulin receptor agonists”, the EC50 (IGF-1 receptor [2]; [10]) was 26.7 nM and the EC50 (IGF-1 receptor [3]) was 216 nM. It also gave an EC50 [6, 11] of 4.34 nM and an EC50 ([7]; Table 15, read-out: Receptor Phosphorylation IR-A- EC50) of 0.985 nM.

B2: DP20LysC: DP20 cleaved at the lysine of CTP to produce a two chain insulin (protein)
chain 1: GPEHLCGAHLVDALYLVCGDRGFYSSSSRAPPPSLPSPSRLPGPSDTPILPQK
chain 2: GIVDECCHRSCDLRRLENYCN
In the case of B2, the EC50 (IGF-1 receptor [2]; [10]) is reported as 13.3 nM, the EC50 (IGF-1 receptor [3]) is reported as 50 nM and the EC50 [6, 11] is reported as 1.33 nM. For the same molecule, the EC50 ([6]; read-out: EC50 values (in nM), phosphorylation at the insulin subtype B receptor, experiment of FIG. 18B) was 2.44 ± 1.3 nM, the EC50 [5, 9] was 8.19 nM and the “in vitro phosphorylation activity at the insulin subtype A receptor (result in words)” value ([7]; FIGS. 21, 23) was “potency similar to native insulin”.
